Measured values: the supplement of paper PMC6757056
± gives the standard deviation of the averaged measurements.

B1: library; a variant is named by its letters at N, in order (parent)
chain: GCUGUCACCGGUGCUUGGUACGUUAUAUUCAGCCGGUCUGAUGAGUCUNNNNNNAGACGAAACAGC

Experiments:
(6R,S)-folinic acid [1] = variants of: B1; experiment: FACS-Seq fitted mean relative fluorescence mCherry/BFP without ligand (log10 relative fluorescence); HEK293T overexpressing SLC46A1; higher = higher reporter protein expression; settings: without (6R,S)-folinic acid; ligand present: no
Method in brief: (§1)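 To measure fluorescence, a normal distribution was fitted to read counts across sorted bins. The reporter libraries were HEK293T cells transduced by lentivirus with mCherry under ribozyme-switch control and an EF1α-BFP marker, enriched and then kept with or without ligand for 48 h. Sorting used 6 mCherry/BFP bins, and bin genomic DNA was PCR-amplified and sequenced on MiSeq. Fitted means of log10(mCherry/BFP) were scaled to five spiked-in control ribozymes.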

(6R,S)-folinic acid [2] = variants of: B1; experiment: normalized RNA/DNA level without ligand (relative to sTRSVctl = 100) (log10 (% of sTRSVctl)); HEK293T overexpressing SLC46A1; higher = less ribozyme self-cleavage, higher mRNA level; settings: without (6R,S)-folinic acid; ligand present: no
Method in brief: (§2)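 Library plasmids encoding reporter-linked ribozyme switches (mCherry, or eGFP for some folinic acid experiments) were transfected into HEK293T at 4 µg per 6-well well. Ligand, when used, was added 1 h before transfection. Total RNA was extracted with EDTA 72 h later, then reverse-transcribed, amplified, barcoded and sequenced. RNA level was RNA reads over DNA reads, divided by a spiked-in non-cleaving control (or the top 25 sequences), ×100, log10; only sequences with ≥100 DNA reads were kept.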

(6R,S)-folinic acid [3] = variants of: B1; experiment: FACS-Seq fitted mean relative fluorescence mCherry/BFP with ligand (log10 relative fluorescence); HEK293T overexpressing SLC46A1; ligand concentration (+) FACS-Seq: 6 mM; higher = higher reporter protein expression; settings: with (6R,S)-folinic acid; ligand present: yes
Method in brief: as §1

(6R,S)-folinic acid [4] = variants of: B1; experiment: normalized RNA/DNA level with ligand (relative to sTRSVctl = 100) (log10 (% of sTRSVctl)); HEK293T overexpressing SLC46A1; ligand concentration (+) RNA-Seq: 6 mM; higher = less ribozyme self-cleavage, higher mRNA level; settings: with (6R,S)-folinic acid; ligand present: yes
Method in brief: as §2

Variant | FACS-Seq fitted mean (log10) ((6R,S)-folinic acid [1]) | normalized RNA/DNA level without ligand (log10) ((6R,S)-folinic acid [2]) | FACS-Seq fitted mean (log10) ((6R,S)-folinic acid [3]) | normalized RNA/DNA level with ligand (log10) ((6R,S)-folinic acid [4])
GCUGUCACCGGUGCUUGGUACGUUAUAUUCAGCCGGUCUGAUGAGUCUACGGCAAGACGAAACAGC [ACGGCA] | 0.0556 ± 0.13 | 2.02 ± 0.026 | 0.139 ± 0.39 | 2.04 ± 0.029
GCUGUCACCGGUGCUUGGUACGUUAUAUUCAGCCGGUCUGAUGAGUCUGCGGAGAGACGAAACAGC [GCGGAG] | 0.2 ± 0.093 | 1.89 ± 0.022 | 0.18 ± 0.029 | 2.01 ± 0.051
GCUGUCACCGGUGCUUGGUACGUUAUAUUCAGCCGGUCUGAUGAGUCUUCGGAAAGACGAAACAGC [UCGGAA] | 0.527 ± 0.079 | 1.897 ± 0.0085 | 0.24 ± 0.14 | 1.99 ± 0.037
GCUGUCACCGGUGCUUGGUACGUUAUAUUCAGCCGGUCUGAUGAGUCUUCGGAGAGACGAAACAGC [UCGGAG] | 0.429 ± 0.14 | 1.74 ± 0.019 | 0.837 ± 0.14 | 1.972 ± 0.0045
GCUGUCACCGGUGCUUGGUACGUUAUAUUCAGCCGGUCUGAUGAGUCUUCGGAUAGACGAAACAGC [UCGGAU] | 0.33 ± 0.067 | 1.946 ± 0.019 | 0.517 ± 0.14 | 2.01 ± 0.024
GCUGUCACCGGUGCUUGGUACGUUAUAUUCAGCCGGUCUGAUGAGUCUUCGGCCAGACGAAACAGC [UCGGCC] | 0.562 ± 0.15 | 2.098 ± 0.0059 | 0.476 ± 0.036 | 2.043 ± 0.011
GCUGUCACCGGUGCUUGGUACGUUAUAUUCAGCCGGUCUGAUGAGUCUUCGGCUAGACGAAACAGC [UCGGCU] | 0.288 ± 0.09 | 2.08 ± 0.024 | 0.415 ± 0.31 | 2.06 ± 0.053
GCUGUCACCGGUGCUUGGUACGUUAUAUUCAGCCGGUCUGAUGAGUCUACGGGAAGACGAAACAGC [ACGGGA] | 0.247 ± 0.026 | 1.941 ± 0.0036 | 0.471 ± 0.17 | 2.01 ± 0.038
GCUGUCACCGGUGCUUGGUACGUUAUAUUCAGCCGGUCUGAUGAGUCUCCGGUUAGACGAAACAGC [CCGGUU] | 0.218 ± 0.017 | 2.038 ± 0.016 | -0.22 ± 0.1 | 2.01 ± 0.018
GCUGUCACCGGUGCUUGGUACGUUAUAUUCAGCCGGUCUGAUGAGUCUUCGGUGAGACGAAACAGC [UCGGUG] | -0.084 ± 0.14 | 1.817 ± 0.0011 | 0.096 ± 0.055 | 2 ± 0.03
GCUGUCACCGGUGCUUGGUACGUUAUAUUCAGCCGGUCUGAUGAGUCUACGGAUAGACGAAACAGC [ACGGAU] | 0.261 ± 0.068 | 1.936 ± 0.017 | 0.344 ± 0.042 | 2.01 ± 0.037
